Experimental data: PMC9513094

B1: RFP-VAP27-1 (natural protein)
chain: MSNIDLIGMSNRDLIGMSNSELLTVEPLDLQFPFELKKQISCSLYLTNKTDNNVAFKVKTTNPKKYCVRPNTGVVLPRSTCEVLVTMQAQKEAPSDMQCKDKFLLQGVIASPGVTAKEVTPEMFSKEAGHRVEETKLRVTYVAPPRPPSPVHEGSEEGSSPRASVSDNGHGSEFSFERFIVDNKAGHQENTSEARALITKLTEEKQSAIQLNNRLQRELDQLRRESKKSQSGGIPFMYVLLVGLIGLILGYIMKRT
B2: RFP-ATG8e (natural protein)
chain: MNKGSIFKMDNDFEKRKAEAGRIREKYPDRIPVIVEKAEKSEVPNIDKKKYLVPSDLTVGQFVYVIRKRIKLSAEKAIFIFVDNVLPPTGELMSSVYEDKKDEDGFLYITYSGENTFG

Columns and labels:
GFP-TRB1 (Arabidopsis) = GFP-TRB1 (Arabidopsis) (UniProt Q8VWK4); experiment: FRET or BRET; FRET-FLIM (TCSPC); GFP fusion as donor, RFP fusion as acceptor, co-expressed in plant cells; donor alone as control; 10 images a series
Sequence of UniProt Q8VWK4 (Q8VWK4 whole entry, the tested form may be a part): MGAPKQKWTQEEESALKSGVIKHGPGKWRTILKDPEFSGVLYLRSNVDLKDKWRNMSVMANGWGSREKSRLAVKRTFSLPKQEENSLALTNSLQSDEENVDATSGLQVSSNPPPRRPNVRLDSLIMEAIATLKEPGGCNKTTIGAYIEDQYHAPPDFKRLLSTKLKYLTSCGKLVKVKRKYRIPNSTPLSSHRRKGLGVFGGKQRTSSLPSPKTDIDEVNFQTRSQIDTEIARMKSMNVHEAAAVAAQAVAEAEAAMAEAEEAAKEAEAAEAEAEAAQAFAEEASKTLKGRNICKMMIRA

GFP-TRB2 (Arabidopsis) = GFP-TRB2 (Arabidopsis) (UniProt Q9FJW5); experiment: as above
Sequence of UniProt Q9FJW5 (Q9FJW5 whole entry): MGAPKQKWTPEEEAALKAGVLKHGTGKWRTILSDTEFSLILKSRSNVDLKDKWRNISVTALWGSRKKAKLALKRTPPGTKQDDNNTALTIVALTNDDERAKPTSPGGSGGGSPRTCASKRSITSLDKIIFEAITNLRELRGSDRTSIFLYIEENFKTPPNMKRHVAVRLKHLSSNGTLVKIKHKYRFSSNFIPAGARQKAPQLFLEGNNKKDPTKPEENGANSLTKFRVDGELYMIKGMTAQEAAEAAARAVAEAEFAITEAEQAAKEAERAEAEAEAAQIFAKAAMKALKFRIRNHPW

Row | Binder | fluorescence lifetime of the GFP donor in the presence of the RFP acceptor (GFP-TRB1 (Arabidopsis)) [ns] | fluorescence lifetime of the GFP donor in the presence of the RFP acceptor (GFP-TRB2 (Arabidopsis)) [ns]
1 | B1 | 2.31 | 2.21
2 | B2 | 2.3 | 
